Target: T1, SARS-CoV-2 S HexaPro Protein (SARS-CoV-2, Wuhan-Hu-1, stabilised)
T1 construct: also called Hexapro spike; SARS-CoV-2 spike ectodomain
Test: cryo-EM structure
Settings: both partners purified

B1: DH1338 antigen-binding fragment (Fab) (Fab, V domains shown)
VH: QLQLQESGPGLVKPSETLSLTCAVSGGSISRKNWSWIRQPPGKGLGWIGRISGSGGSTDYNPSLKSRVTISTDTSKNQFSLKLSSVTAADTAVYYCARVAYYEDDYGYYYTEGAFDFWGQGLRVTVSS
VL: EIVMTQSPATLSLSPGERATLSCRTSQSVSSYVAWYQQKPEQTPRLLIYDASSRATGIPDRFSGGGSGTDFTLTISSLEPEDFAVYYCQQYSNWPWTFGQGTKVEIK
notes: also called DH1338 Fab
  stoichiometry N: 3
